Measurements reported in patent publication US20240400708A1.

Target: feline FcRn complex (FcRn-α subunit and β-microglobulin), biotin labeled (feline)
Test: SPR, pH 6

| Binder | Kd [nM] |
| --- | --- |
| feline IgG1a Q311W/S434Y (antibody, part only; not given: Variable domains, not shown: another chain or arm of the molecule) constant: ASTTAPSVFPLAPSCGTTSGATVALACLVLGYFPEPVTVSWNSGALTSGVHTFPAVLQASGLYSLSSMVTVPSSRWLSDTFTCNVAHPPSNTKVDKTVRKTDHPPGPKPCDCPKCPPPEMLGGPSIFIFPPKPKDTLSISRTPEVTCLVVDLGPDDSDVQITWFVDNTQVYTAKTSPREEQFNSTYRVVSVLPILHWDWLKGKEFKCKVNSKSLPSPIERTISKAKGQPHEPQVYVLPPAQEELSRNKVSVTCLIKSFHPPDIAVEWEITGQPEPENNYRTTPPQLDSDGTYFVYSKLSVDRSHWQRGNTYTCSVSHEALHYHHTQKSLTQSPGK | 27 |
| feline IgG1a S252Y/Q311W/S434Y (antibody, part only; not given: Variable domains, not shown: another chain or arm of the molecule) constant: ASTTAPSVFPLAPSCGTTSGATVALACLVLGYFPEPVTVSWNSGALTSGVHTFPAVLQASGLYSLSSMVTVPSSRWLSDTFTCNVAHPPSNTKVDKTVRKTDHPPGPKPCDCPKCPPPEMLGGPSIFIFPPKPKDTLYISRTPEVTCLVVDLGPDDSDVQITWFVDNTQVYTAKTSPREEQFNSTYRVVSVLPILHWDWLKGKEFKCKVNSKSLPSPIERTISKAKGQPHEPQVYVLPPAQEELSRNKVSVTCLIKSFHPPDIAVEWEITGQPEPENNYRTTPPQLDSDGTYFVYSKLSVDRSHWQRGNTYTCSVSHEALHYHHTQKSLTQSPGK | 97.2 |
| feline IgG1a S252Y/S434F/Q311W (antibody, part only; not given: Variable domains, not shown: another chain or arm of the molecule) constant: ASTTAPSVFPLAPSCGTTSGATVALACLVLGYFPEPVTVSWNSGALTSGVHTFPAVLQASGLYSLSSMVTVPSSRWLSDTFTCNVAHPPSNTKVDKTVRKTDHPPGPKPCDCPKCPPPEMLGGPSIFIFPPKPKDTLYISRTPEVTCLVVDLGPDDSDVQITWFVDNTQVYTAKTSPREEQFNSTYRVVSVLPILHWDWLKGKEFKCKVNSKSLPSPIERTISKAKGQPHEPQVYVLPPAQEELSRNKVSVTCLIKSFHPPDIAVEWEITGQPEPENNYRTTPPQLDSDGTYFVYSKLSVDRSHWQRGNTYTCSVSHEALHFHHTQKSLTQSPGK | 164 |
| feline IgG1a S252Y/S428Y/Q311W (antibody, part only; not given: Variable domains, not shown: another chain or arm of the molecule) constant: ASTTAPSVFPLAPSCGTTSGATVALACLVLGYFPEPVTVSWNSGALTSGVHTFPAVLQASGLYSLSSMVTVPSSRWLSDTFTCNVAHPPSNTKVDKTVRKTDHPPGPKPCDCPKCPPPEMLGGPSIFIFPPKPKDTLYISRTPEVTCLVVDLGPDDSDVQITWFVDNTQVYTAKTSPREEQFNSTYRVVSVLPILHWDWLKGKEFKCKVNSKSLPSPIERTISKAKGQPHEPQVYVLPPAQEELSRNKVSVTCLIKSFHPPDIAVEWEITGQPEPENNYRTTPPQLDSDGTYFVYSKLSVDRSHWQRGNTYTCSVYHEALHSHHTQKSLTQSPGK | 67.7 |
| feline IgG1a S252Y/S428Y/S434Y (antibody, part only; not given: variable domains and light chain, not shown: another chain or arm of the molecule) constant: ASTTAPSVFPLAPSCGTTSGATVALACLVLGYFPEPVTVSWNSGALTSGVHTFPAVLQASGLYSLSSMVTVPSSRWLSDTFTCNVAHPPSNTKVDKTVRKTDHPPGPKPCDCPKCPPPEMLGGPSIFIFPPKPKDTLYISRTPEVTCLVVDLGPDDSDVQITWFVDNTQVYTAKTSPREEQFNSTYRVVSVLPILHQDWLKGKEFKCKVNSKSLPSPIERTISKAKGQPHEPQVYVLPPAQEELSRNKVSVTCLIKSFHPPDIAVEWEITGQPEPENNYRTTPPQLDSDGTYFVYSKLSVDRSHWQRGNTYTCSVYHEALHYHHTQKSLTQSPGK | 78.1 |
| feline IgG1a S252Y/S428Y (antibody, part only; not given: Variable domains, not shown: another chain or arm of the molecule) constant: ASTTAPSVFPLAPSCGTTSGATVALACLVLGYFPEPVTVSWNSGALTSGVHTFPAVLQASGLYSLSSMVTVPSSRWLSDTFTCNVAHPPSNTKVDKTVRKTDHPPGPKPCDCPKCPPPEMLGGPSIFIFPPKPKDTLYISRTPEVTCLVVDLGPDDSDVQITWFVDNTQVYTAKTSPREEQFNSTYRVVSVLPILHQDWLKGKEFKCKVNSKSLPSPIERTISKAKGQPHEPQVYVLPPAQEELSRNKVSVTCLIKSFHPPDIAVEWEITGQPEPENNYRTTPPQLDSDGTYFVYSKLSVDRSHWQRGNTYTCSVYHEALHSHHTQKSLTQSPGK | 17.2 |

Results, then the binder that gave them:

| Kd [nM] | Binder |
| --- | --- |
| 1970 | feline IgG1a S252Y/S434F (antibody, part only; not given: Variable domains, not shown: another chain or arm of the molecule) constant: ASTTAPSVFPLAPSCGTTSGATVALACLVLGYFPEPVTVSWNSGALTSGVHTFPAVLQASGLYSLSSMVTVPSSRWLSDTFTCNVAHPPSNTKVDKTVRKTDHPPGPKPCDCPKCPPPEMLGGPSIFIFPPKPKDTLYISRTPEVTCLVVDLGPDDSDVQITWFVDNTQVYTAKTSPREEQFNSTYRVVSVLPILHQDWLKGKEFKCKVNSKSLPSPIERTISKAKGQPHEPQVYVLPPAQEELSRNKVSVTCLIKSFHPPDIAVEWEITGQPEPENNYRTTPPQLDSDGTYFVYSKLSVDRSHWQRGNTYTCSVSHEALHFHHTQKSLTQSPGK |
| 3.71 | feline IgG1a S434V (antibody, part only; not given: Variable domains, not shown: another chain or arm of the molecule) constant: ASTTAPSVFPLAPSCGTTSGATVALACLVLGYFPEPVTVSWNSGALTSGVHTFPAVLQASGLYSLSSMVTVPSSRWLSDTFTCNVAHPPSNTKVDKTVRKTDHPPGPKPCDCPKCPPPEMLGGPSIFIFPPKPKDTLSISRTPEVTCLVVDLGPDDSDVQITWFVDNTQVYTAKTSPREEQFNSTYRVVSVLPILHQDWLKGKEFKCKVNSKSLPSPIERTISKAKGQPHEPQVYVLPPAQEELSRNKVSVTCLIKSFHPPDIAVEWEITGQPEPENNYRTTPPQLDSDGTYFVYSKLSVDRSHWQRGNTYTCSVSHEALHVHHTQKSLTQSPGK |
| 116 | feline IgG1a S252Y/S434Y (antibody, part only; not given: Variable domains, not shown: another chain or arm of the molecule) constant: ASTTAPSVFPLAPSCGTTSGATVALACLVLGYFPEPVTVSWNSGALTSGVHTFPAVLQASGLYSLSSMVTVPSSRWLSDTFTCNVAHPPSNTKVDKTVRKTDHPPGPKPCDCPKCPPPEMLGGPSIFIFPPKPKDTLYISRTPEVTCLVVDLGPDDSDVQITWFVDNTQVYTAKTSPREEQFNSTYRVVSVLPILHQDWLKGKEFKCKVNSKSLPSPIERTISKAKGQPHEPQVYVLPPAQEELSRNKVSVTCLIKSFHPPDIAVEWEITGQPEPENNYRTTPPQLDSDGTYFVYSKLSVDRSHWQRGNTYTCSVSHEALHYHHTQKSLTQSPGK |
| 10.9 | feline IgG1a S252Y/L314K (antibody, part only; not given: Variable domains, not shown: another chain or arm of the molecule) constant: ASTTAPSVFPLAPSCGTTSGATVALACLVLGYFPEPVTVSWNSGALTSGVHTFPAVLQASGLYSLSSMVTVPSSRWLSDTFTCNVAHPPSNTKVDKTVRKTDHPPGPKPCDCPKCPPPEMLGGPSIFIFPPKPKDTLYISRTPEVTCLVVDLGPDDSDVQITWFVDNTQVYTAKTSPREEQFNSTYRVVSVLPILHQDWKKGKEFKCKVNSKSLPSPIERTISKAKGQPHEPQVYVLPPAQEELSRNKVSVTCLIKSFHPPDIAVEWEITGQPEPENNYRTTPPQLDSDGTYFVYSKLSVDRSHWQRGNTYTCSVSHEALHSHHTQKSLTQSPGK |
| 2140 | feline IgG1a T256S (antibody, part only; not given: Variable domains, not shown: another chain or arm of the molecule) constant: ASTTAPSVFPLAPSCGTTSGATVALACLVLGYFPEPVTVSWNSGALTSGVHTFPAVLQASGLYSLSSMVTVPSSRWLSDTFTCNVAHPPSNTKVDKTVRKTDHPPGPKPCDCPKCPPPEMLGGPSIFIFPPKPKDTLSISRSPEVTCLVVDLGPDDSDVQITWFVDNTQVYTAKTSPREEQFNSTYRVVSVLPILHQDWLKGKEFKCKVNSKSLPSPIERTISKAKGQPHEPQVYVLPPAQEELSRNKVSVTCLIKSFHPPDIAVEWEITGQPEPENNYRTTPPQLDSDGTYFVYSKLSVDRSHWQRGNTYTCSVSHEALHSHHTQKSLTQSPGK |
| 10.5 | feline IgG1a S252Y/D312P (antibody, part only; not given: Variable domains, not shown: another chain or arm of the molecule; small tags and cut ends) constant: ASTTAPSVFPLAPSCGTTSGATVALACLVLGYFPEPVTVSWNSGALTSGVHTFPAVLQASGLYSLSSMVTVPSSRWLSDTFTCNVAHPPSNTKVDKTVRKTDHPPGPKPCDCPKCPPPEMLGGPSIFIFPPKPKDTLYISRTPEVTCLVVDLGPDDSDVQITWFVDNTQVYTAKTSPREEQFNSTYRVVSVLPILHQPWLKGKEFKCKVNSKSLPSPIERTISKAKGQPHEPQVYVLPPAQEELSRNKVSVTCLIKSFHPPDIAVEWEITGQPEPENNYRTTPPQLDSDGTYFVYSKLSVDRSHWQRGNTYTCSVSHEALHSHHTQKSLTQSPGK |
